Among the data in PMC3779530 (Innate immunity, 2013) are Kd values, retold here.

Read-outs that look alike come from different tables or passages of the source.

In assay [1] the target is TLR4 ECD (Homo sapiens) (UniProt O00206). As to conditions: cited from earlier work.
Target sequence in this assay (O00206 24-631): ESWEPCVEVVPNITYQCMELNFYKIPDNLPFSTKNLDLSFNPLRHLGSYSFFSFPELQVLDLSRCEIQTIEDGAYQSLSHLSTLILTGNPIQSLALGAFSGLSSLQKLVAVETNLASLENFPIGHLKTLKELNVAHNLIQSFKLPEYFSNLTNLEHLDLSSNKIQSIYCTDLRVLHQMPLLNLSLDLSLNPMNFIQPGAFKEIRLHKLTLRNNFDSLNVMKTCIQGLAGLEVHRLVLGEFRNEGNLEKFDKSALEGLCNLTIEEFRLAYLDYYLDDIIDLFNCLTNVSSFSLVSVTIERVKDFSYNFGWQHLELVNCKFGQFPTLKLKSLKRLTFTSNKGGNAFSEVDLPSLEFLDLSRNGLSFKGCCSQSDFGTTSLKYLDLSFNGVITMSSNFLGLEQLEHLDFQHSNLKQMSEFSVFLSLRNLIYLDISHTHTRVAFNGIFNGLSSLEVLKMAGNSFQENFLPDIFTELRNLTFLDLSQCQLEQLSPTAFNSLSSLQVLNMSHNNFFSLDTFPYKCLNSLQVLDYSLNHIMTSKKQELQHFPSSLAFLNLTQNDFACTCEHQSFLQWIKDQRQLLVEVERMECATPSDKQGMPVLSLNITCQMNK
Assay [2] has the same target. As to conditions: cited from earlier work. The source holds these as a separate data set.
Target sequence in this assay (O00206 24-631 D299G/T399I): as the sequence (O00206 24-631) above, with D276G, T376I counted along it
The target of assay [3] is FLAG-tagged TLR4 ectodomain-vlr-Fc protein (not stated | hagfish) (UniProt O00206). Put plainly: radioligand binding.
Assay [4] addresses full-length wild-type TLR4 on transiently transfected HEK293T cells (human, UniProt O00206 24-839). The assay can be described thus: radioligand binding.

Sequence of full-length wild-type TLR4 on transiently transfected HEK293T cells (O00206 24-839): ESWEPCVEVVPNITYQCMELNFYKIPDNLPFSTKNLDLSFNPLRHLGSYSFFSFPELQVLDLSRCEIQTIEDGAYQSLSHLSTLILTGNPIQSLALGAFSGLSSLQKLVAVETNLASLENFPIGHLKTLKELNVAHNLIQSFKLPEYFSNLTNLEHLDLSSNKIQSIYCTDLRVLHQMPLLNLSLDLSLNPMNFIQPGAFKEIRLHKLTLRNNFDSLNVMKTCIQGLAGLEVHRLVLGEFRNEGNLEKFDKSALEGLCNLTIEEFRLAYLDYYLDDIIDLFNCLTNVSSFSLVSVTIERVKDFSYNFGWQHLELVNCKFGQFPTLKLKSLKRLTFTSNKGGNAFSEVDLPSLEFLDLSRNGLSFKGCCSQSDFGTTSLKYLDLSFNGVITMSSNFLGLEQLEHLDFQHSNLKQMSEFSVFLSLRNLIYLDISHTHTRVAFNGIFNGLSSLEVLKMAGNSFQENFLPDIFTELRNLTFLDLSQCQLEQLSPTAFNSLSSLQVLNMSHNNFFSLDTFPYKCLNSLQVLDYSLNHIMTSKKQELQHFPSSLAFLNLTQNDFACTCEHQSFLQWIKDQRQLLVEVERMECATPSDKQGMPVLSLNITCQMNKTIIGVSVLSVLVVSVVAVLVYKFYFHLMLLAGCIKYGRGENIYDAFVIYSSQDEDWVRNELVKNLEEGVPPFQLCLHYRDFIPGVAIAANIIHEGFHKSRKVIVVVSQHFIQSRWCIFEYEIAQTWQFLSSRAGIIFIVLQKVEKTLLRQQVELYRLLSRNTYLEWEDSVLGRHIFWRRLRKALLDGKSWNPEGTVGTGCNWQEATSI

As for LOS·MD-2 (from UniProt Q9Y6Y9), the Kd with TLR4 ECD (Homo sapiens) [1] and in the assay with TLR4 ECD (Homo sapiens) [2] was 200 pM in each case.

B1: metabolically labeled LOS·MD-2 (monomeric complex of Neisseria meningitidis lipooligosaccharide and recombinant human His6-MD-2) (ligand)
chain: QKQYWVCNSSDASISYTYCDKMQYPISINVNPCIELKRSKGLLHIFYIPRRDLKQLYFNLYITVNTMNLPKRKEVICRGSDDDYSFCRALKGETVNTTISFSFKGIKFSKGKYKCVVEAISGSPEEMLFCLEFVILHQPNSN
Regarding B1, the Kd in assay [3] was found to be 117 pM; in assay [4], 367 ± 136 pM.
